From US20180258408A1
“And” between values parts separate entries of the source, which are not always exact repeats. Equal values may be shown once.

B1: sulfamidase modified with R1 oxidation at 22 °C, 120 min, 10 mmol/L sodium meta-periodate (enzyme)
chain: RPRNALLLLADDGGFESGAYNNSAIATPHLDALARRSLLFRNAFTSVSSCSPSRASLLTGLPQHQNGMYGLHQDVHHFNSFDKVRSLPLLLSQAGVRTGIIGKKHVGPETVYPFDFAYTEENGSVLQVGRNITRIKLLVRKFLQTQDDRPFFLYVAFHDPHRCGHSQPQYGTFCEKFGNGESGMGRIPDWTPQAYDPLDVLVPYFVPNTPAARADLAAQYTTVGRMDQGVGLVLQELRDAGVLNDTLVIFTSDNGIPFPSGRTNLYWPGTAEPLLVSSPEHPKRWGQVSEAYVSLLDLTPTILDWFSIPYPSYAIFGSKTIHLTGRSLLPALEAEPLWATVFGSQSHHEVTMSYPMRSVQHRHFRLVHNLNFKMPFPIDQDFYVSPTFQDLLNRTTAGQPTGWYKDLRHYYYRARWELYDRSRDPHETQNLATDPRFAQLLEMLRDQLAKWQWETHDPWVCAPDGVLEEKLSPQCQPLHNEL
modifications: N-glycans oxidised with periodate (22 °C, 120 min, 10 mmol/L), then reduced with borohydride as in new method 1
B2: sulfamidase modified with R1 oxidation at 0 °C, 30 min, 40 mmol/L sodium meta-periodate (enzyme)
chain: B1 chain
modifications: N-glycans oxidised with periodate (0 °C, 30 min, 40 mmol/L), then reduced with borohydride as in new method 1
B3: sulfamidase modified with R1 oxidation at 0 °C, 120 min, 40 mmol/L sodium meta-periodate (enzyme)
chain: B1 chain
modifications: N-glycans oxidised with periodate (0 °C, 120 min, 40 mmol/L), then reduced with borohydride as in new method 1
B4: sulfamidase modified with R1 oxidation at 22 °C, 30 min, 40 mmol/L sodium meta-periodate (enzyme)
chain: B1 chain
modifications: N-glycans oxidised with periodate (22 °C, 30 min, 40 mmol/L), then reduced with borohydride as in new method 1
B5: sulfamidase modified with R1 oxidation at 22 °C, 120 min, 40 mmol/L sodium meta-periodate (enzyme)
chain: B1 chain
modifications: N-glycans oxidised with periodate (22 °C, 120 min, 40 mmol/L), then reduced with borohydride as in new method 1
B6: sulfamidase modified with R1 oxidation at 8 °C, 60 min, 20 mmol/L sodium meta-periodate (enzyme)
chain: B1 chain
modifications: N-glycans oxidised with periodate (8 °C, 60 min, 20 mmol/L), then reduced with borohydride as in new method 1
B7: sulfamidase modified according to the known method (WO 2008/109677) (enzyme)
chain: B1 chain
modifications: N-glycans oxidised with 20 mM sodium meta-periodate (6.5 h) and reduced with 100 mM sodium borohydride (overnight); FGly50 about 56% converted to Ser; Met184 and Met443 almost completely oxidised
B8: sulfamidase modified according to new method 1 (enzyme)
chain: B1 chain
modifications: N-glycans oxidised with 20 mM sodium meta-periodate (0 °C, 120 min) and reduced with 50 mM sodium borohydride (0 °C, 120 min); FGly50 about 45% converted to Ser
B9: sulfamidase modified according to new method 4 (enzyme)
chain: B1 chain
modifications: N-glycans oxidised with 20 mM sodium meta-periodate (0 °C, 120 min) and reduced with 10 mM sodium borohydride; FGly50 about 11% converted to Ser
B10: sulfamidase modified with R1 oxidation at 0 °C, 30 min, 10 mmol/L sodium meta-periodate (enzyme)
chain: B1 chain
modifications: N-glycans oxidised with periodate (0 °C, 30 min, 10 mmol/L), then reduced with borohydride as in new method 1
B11: sulfamidase modified with R1 oxidation at 0 °C, 120 min, 10 mmol/L sodium meta-periodate (enzyme)
chain: B1 chain
modifications: N-glycans oxidised with periodate (0 °C, 120 min, 10 mmol/L), then reduced with borohydride as in new method 1
B12: sulfamidase modified with R1 oxidation at 22 °C, 30 min, 10 mmol/L sodium meta-periodate (enzyme)
chain: B1 chain
modifications: N-glycans oxidised with periodate (22 °C, 30 min, 10 mmol/L), then reduced with borohydride as in new method 1

Target: M6P receptors on MEF-1 fibroblasts
Test: cell-based or functional assay

Binder	Cell uptake % of unmodified sulfamidase uptake (% of unmodified sulfamidase uptake)	specific activity in cell homogenate (endocytosis in MEF-1 cells) (% of unmodified recombinant sulfamidase)
B1	8.5	
B2	3.8	
B3	3.5	
B4	2.7	
B5	3.5	
B6	6.1 and 6.5	
B7		< 10
B8		< 10
B9		< 10
B10	12	
B11	9.5	
B12	7.1	
